Measurements taken from US20020081718, “POLYPEPTIDE, AND A DNA SEQUENCE TO WHICH A PROTEIN CONTAINING THE POLYPETIDE BINDS” (published 2002).

T1: hGCMa N-terminal fragment (Homo sapiens, UniProt Q9NP62 SEQ:1-171)
T1 chain: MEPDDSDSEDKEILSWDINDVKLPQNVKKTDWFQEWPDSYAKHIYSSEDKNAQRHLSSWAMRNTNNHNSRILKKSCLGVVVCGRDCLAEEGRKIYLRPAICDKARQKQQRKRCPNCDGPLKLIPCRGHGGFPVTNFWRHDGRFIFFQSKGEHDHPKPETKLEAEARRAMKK

T2: GCM N243 (MBP fusion) (Drosophila, UniProt Q27403 SEQ:1-243)
T2 chain: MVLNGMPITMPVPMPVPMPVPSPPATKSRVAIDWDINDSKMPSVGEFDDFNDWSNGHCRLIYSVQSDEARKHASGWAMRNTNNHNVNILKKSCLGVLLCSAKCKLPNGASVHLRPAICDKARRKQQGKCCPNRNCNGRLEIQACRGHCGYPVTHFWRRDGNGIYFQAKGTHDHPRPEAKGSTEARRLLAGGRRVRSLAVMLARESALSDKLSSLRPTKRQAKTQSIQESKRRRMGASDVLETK

B1: competitor b without GCM site (dsDNA)
DNA 1: TGTGTGGAATTGTGAGCGGATATACTAATTTGTTAGGTTTTCCCAGTCACGACG
DNA 2: CGTCGTGACTGGGAAAACCTAACAAATTAGTATATCCGCTCACAATTCCACACA
B2: competitor a with GCM site (dsDNA)
DNA 1: TGTGTGGAATTGTGAGCGGACCTACCCGCATTACGGGTTTTCCCAGTCACGACG
DNA 2: CGTCGTGACTGGGAAAACCCGTAATGCGGGTAGGTCCGCTCACAATTCCACACA

Assays:
[1] = molecular target: T1, hGCMa N-terminal fragment; test: competition; results stated similar to those of GCM
Protocol: Gel shift assays and competition assays were carried out in the same manner as above by using proteins obtained by causing expression of DNA fragments of up to the 171-st amino acid residue of hGCMa, giving results similar to those of GCM.

[2] = molecular target: T2, GCM N243 (MBP fusion); test: competition; no competition; conditions: tags: MBP fusion (pMAL, E. coli)
[3] = molecular target: T2, GCM N243 (MBP fusion); test: competition; dose-dependent competition of labeled 200 bp repo fragment, 1-1000x; conditions: tags: MBP fusion (pMAL, E. coli)

Binder	binding result [1]	binding result [2]	binding result [3]
B1	no binding	no binding	–
B2	binds	–	binds
